Experimental data: US20240294632A1 (XL PROTEIN, published 2024)

Columns and labels:
[1] = molecular target: T1, APSA(200)-TrxA; assay: SPR, biotinylated antigen on CAPture chip, Fab as analyte, 1:1 model
T1 construct: Biotinylated and immobilised on a biotin CAPture chip; also called thioredoxinA-APSA(200)

[2] = molecular target: T2, APSA(200)-IL1Ra; assay: ELISA, antigen coated, Fab titrated
T2 construct: Fusion protein produced in E. coli; Labelled with DIG-NHS in the MAb capture ELISA

[3] = molecular target: T2, APSA(200)-IL1Ra; assay: ELISA, Fab titrated on coated APSA(200)-IL1Ra
[4] = molecular target: T3, Pga-APSAAPSAAPSA (N-terminal pyroglutamyl residue (Pga), counted as P1 in the structure); assay: co-crystal structure of the recombinant Fab with the peptide
T3 construct: Peptide ligand co-crystallised with the Fab of MAb 3.1; also called Pga-(APSA)3 peptide; (APSA)3 peptide
T3 peptide: APSAAPSAAPSA

[5] = molecular target: T2, APSA(200)-IL1Ra; assay: SPR, MAb from hybridoma supernatant captured by anti-mouse antibody, antigen as analyte, bivalent analyte model
[6] = molecular target: T4, IL1Ra (Kineret/Anakinra) (UniProt P18510 26-177); assay: western blot, hybridoma supernatant 1:2000
T4 construct: Commercial drug product; also called non-PASylated protein version

[7] = molecular target: T5, PAS #1(200)-IL1Ra; assay: Western blot of the fusion protein after SDS-PAGE; anti-mouse IgG Fc-AP, BCIP/NBT [D]
T5 construct: PASylated fusion protein produced in E. coli; Biotinylated for the SPR measurements with Fabs

[8] = molecular target: T2, APSA(200)-IL1Ra; assay: MAb capture ELISA, hybridoma supernatant on anti-mouse IgG Fc, DIG-labelled antigen titrated
[9] = molecular target: T6, P/A #1(200)-IL1Ra; assay: SPR, MAb from hybridoma supernatant captured by anti-mouse antibody, antigen as analyte, bivalent analyte model
T6 construct: PASylated fusion protein produced in E. coli; Biotinylated for the SPR measurements with Fabs

[10] = molecular target: T5, PAS #1(200)-IL1Ra; assay: as above
[11] = molecular target: T7, hu4D5-PAS #1(200); assay: MAb capture ELISA, hybridoma supernatant on anti-mouse IgG Fc, antigen titrated
T7 construct: Detected with anti-human kappa light chain antibody in the capture ELISA

[12] = molecular target: T8, hu4D5-P/A #1(200); assay: as above
T8 construct: Detected with anti-human kappa light chain antibody in the capture ELISA

[13] = molecular target: T9, PASylated Thymosin alpha 1; assay: sandwich ELISA in diluted rat plasma: MAb 2.1 coated as capture antibody, MAb 1.2-alkaline phosphatase as detection reagent; calibration curve
T9 construct: also called PASylated Tα1
T9 chain: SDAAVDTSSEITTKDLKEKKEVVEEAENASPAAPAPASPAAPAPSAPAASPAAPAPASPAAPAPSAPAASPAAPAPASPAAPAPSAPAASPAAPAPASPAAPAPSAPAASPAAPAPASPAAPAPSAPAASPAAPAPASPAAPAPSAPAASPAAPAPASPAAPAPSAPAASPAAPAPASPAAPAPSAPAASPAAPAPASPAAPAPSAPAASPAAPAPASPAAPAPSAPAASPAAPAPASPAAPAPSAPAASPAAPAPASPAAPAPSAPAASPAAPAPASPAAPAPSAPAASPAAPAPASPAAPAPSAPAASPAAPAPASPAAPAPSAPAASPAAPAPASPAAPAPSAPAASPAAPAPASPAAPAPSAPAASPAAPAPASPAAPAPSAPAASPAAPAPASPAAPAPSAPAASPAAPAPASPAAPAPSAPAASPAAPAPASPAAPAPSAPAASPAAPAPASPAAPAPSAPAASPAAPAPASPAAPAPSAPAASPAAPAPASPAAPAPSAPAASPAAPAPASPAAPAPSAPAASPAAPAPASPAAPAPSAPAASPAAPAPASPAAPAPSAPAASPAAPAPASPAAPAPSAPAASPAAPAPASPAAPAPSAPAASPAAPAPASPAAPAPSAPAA

[14] = molecular target: T4, IL1Ra (Kineret/Anakinra); assay: western blot, hybridoma supernatant 1:2000 or purified MAb 1:200000
[15] = molecular target: T8, hu4D5-P/A #1(200); assay: MAb capture ELISA: MAb from hybridoma supernatant captured by anti-mouse IgG Fc, hu4D5-P/A#1(200) titrated (x axis: antigen concentration)

T4 sequence (P18510 26-177 limits assumed): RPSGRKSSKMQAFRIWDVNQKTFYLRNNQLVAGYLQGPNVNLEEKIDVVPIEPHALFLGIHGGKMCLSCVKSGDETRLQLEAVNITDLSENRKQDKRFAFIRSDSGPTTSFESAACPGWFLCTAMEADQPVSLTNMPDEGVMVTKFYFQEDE
T6 sequence (chain, as listed by the source limits assumed): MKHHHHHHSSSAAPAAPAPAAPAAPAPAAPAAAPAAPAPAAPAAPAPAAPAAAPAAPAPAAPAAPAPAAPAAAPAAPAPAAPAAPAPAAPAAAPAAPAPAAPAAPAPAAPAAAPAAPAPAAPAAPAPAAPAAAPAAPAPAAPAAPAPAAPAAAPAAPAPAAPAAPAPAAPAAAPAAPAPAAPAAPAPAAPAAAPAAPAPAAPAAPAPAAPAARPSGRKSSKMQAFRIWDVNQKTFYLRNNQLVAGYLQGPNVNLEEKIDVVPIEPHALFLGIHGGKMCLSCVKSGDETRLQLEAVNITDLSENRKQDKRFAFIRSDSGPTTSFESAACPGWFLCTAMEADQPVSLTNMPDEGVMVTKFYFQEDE

B1: Fab fragment of Anti-PA(S) MAb 3.1 (Fab, V domains shown)
VH: QVQLQQSGAELVRPGASVKLSCKALGYIFTDYEMHWVKQTPVHGLEWIGVIHPGSGNTVYNQKFQGKATLTADKSSSTAYMEVSSLTSEDSAVYYCNLWGRWGQGTTLTVSS
VL: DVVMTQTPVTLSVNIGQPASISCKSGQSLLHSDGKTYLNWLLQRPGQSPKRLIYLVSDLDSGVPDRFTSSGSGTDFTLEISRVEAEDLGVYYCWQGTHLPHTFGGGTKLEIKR
notes: also called Anti-PA(S) MAb 3.1 Fab; anti-APSA antibody fragment
- Kd [1]: 2.5 nM
- Kd [2]: 1.9 nM
- EC50 (read off the curve) [3]: ~2 nM
- binding result [4]: binds

B2: Anti-PA(S) MAb 3.1 (antibody, V domains shown)
VH: QVQLQQSGAELVRPGASVKLSCKALGYIFTDYEMHWVKQTPVHGLEWIGVIHPGSGNTVYNQKFQGKATLTADKSSSTAYMEVSSLTSEDSAVYYCNLWGRWGQGTTLTVSS
VL: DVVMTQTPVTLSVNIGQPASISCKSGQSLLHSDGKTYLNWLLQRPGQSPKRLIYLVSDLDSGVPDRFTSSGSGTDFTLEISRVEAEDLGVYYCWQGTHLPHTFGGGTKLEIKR
notes: Mouse monoclonal IgG from hybridoma (culture supernatant); also called DSM ACC3367
- Kd [5]: 0.019 nM
- binding result [6]: no binding
- binding result [7]: no binding (tested: hybridoma supernatant diluted 1:2000)
- Kd [8]: 0.118 nM

B3: Anti-PA(S) MAb 2.1 (antibody, V domains shown)
VH: QVTLKESGPGILQPSQTLSLTCSFSGFSLSTYDMGVGWIRQPSGKGLEWLANIWWNDNKYYNSALKSRLTISKDTSNNQVFLKISSVDATDTATYYCAQMRDNYGVWFAFWGQGTLVTVSA
VL: DIVMSQSPSSLAVSVGEKVTMSCKSSQSLFYSNREKNYLAWYQQKPGQSPKLLIYWASTRESGVPDRFTGSGSGTDFTLTISNVKAEDLAVYYCQQYYNYPTFGAGTKLELKR
notes: Mouse monoclonal IgG from hybridoma (supernatant or protein G purified); also called DSM ACC3366
- Kd [9]: 0.429 nM
- Kd [10]: 1.7 nM
- Kd [11]: 0.113 nM
- Kd [12]: 0.17 nM
- binding result [13]: binds
- binding result [14]: no binding
- EC50 (read off the curve) [15]: ~0.08 nM
